Data on 4 molecules can be found in article PMC8791620 (Science Advances, 2022).

Sequences and labels used below:
B4: Trs130 (subunit of TRAPPII) (natural protein, S. cerevisiae, UniProt Q03660 1-1102, looked up)
chain: MDKEIYCGSVPVSYFDPFDLFESLRPEFQQILPLDNIHWKAFDGTVRTVNRLPIELIPEGRGEADKSNDEQPFIRFLIVNCISIDQYRAKVRPLVRQWLPNLESVSSSTGEKMIYKPIILLYANSEVVDSNLFKSVSLMEKFGKDFPHVQTLEVRSVYRSPKERQEFWNQFSQKIKASVLSIFQKRLTHLQHSLANLQKGNNFEEQLLTREKLYELYVVFNILEDASLELQKIKKEILRRNMNMPDGKLQVPFESSSKSDESLGSIIIEGTLDKFQLHKYFFIRRLRLLKLEDQTLTAFVGAFQLIKNFIESISIEYRKSVRLLEFKHYFITSMLSYFEFENVSNPLLCEIKAELLMLKRDNWVQGVMATSGYRLMDKNYPNSDVKYKFDLLKETFVDETVFQENFLTLTKEILSLFNKCEGKRQRIVDILSIEIGLLYYQGKKYEEAVSLFLSCYEYYTQTNWNSIGLKILQVFIDSLSHCPKLDVLQIDGESVSASAVLTNAFLNILKLCKDNDSKEIWWKKFMDLQMKNNIHLMYPLDGLFEVTLNSKVHLARANVSAIEVNLKSYGFPEDISTKTMRLSLKNMGGDVIVFGASDFLLKKGENKLILECRDIMYGEFSLLSFEIIVEGITFVKEFPENQDEFIVVPEIYCKESTKVLVKQAHNLNLGEYALELKSVQSDALESLQVEVEVQKNIGNMKNLPVSFSMDEIQARKRYNTPFENVRLEYYLLDQITAFDLIIKTSFTKKNDQGTFGETKKVRIQCYLQLSVSVEDIFKKDIFFFKFLLNSSVREEPVILYSSELSAPDTRNDYNIRGDYIATTPALITFDGNESFINCYEITANNNFDSKDIFNLKVRYNTLKEQLDCFITDAVLIEGDVEWFILFEKWKTFWELEILKKLKYDYDAFKENRIIRLLKTSIDLNKTKSKIRNLCIEKAVLDKILICLNKVSRGIAVCNTDMDEYVRNLVPKQLTVPVQLPGFEQFFHVQFEQMETSHDALHDTIATIGNSLSYTVIVENLSGQWGQDVIDDGGYIFEILSSNEWLIHGQKRCAIKEKRKEFEVHLIPLKKGYLNFPRVEITNINGKSCRVDHSNAFESILIF

Common to all, as to test: cryo-EM structure
The target in assay [1] is T1, Trs31 (subunit of core TRAPP/TRAPPI in TRAPPII) (S. cerevisiae, UniProt Q03337 1-283).
T1 sequence (looked up): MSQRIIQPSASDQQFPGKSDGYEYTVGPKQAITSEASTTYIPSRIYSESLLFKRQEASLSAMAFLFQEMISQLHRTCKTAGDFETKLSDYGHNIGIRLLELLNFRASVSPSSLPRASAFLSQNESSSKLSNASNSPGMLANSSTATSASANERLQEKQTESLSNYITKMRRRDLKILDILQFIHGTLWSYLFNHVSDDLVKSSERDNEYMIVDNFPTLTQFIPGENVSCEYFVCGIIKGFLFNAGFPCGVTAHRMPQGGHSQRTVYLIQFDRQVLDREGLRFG

The target of assay [2] is T2, Trs120 (3xFLAG-tagged, subunit of TRAPPII) (S. cerevisiae, UniProt Q04183 1-1289).
T2 sequence: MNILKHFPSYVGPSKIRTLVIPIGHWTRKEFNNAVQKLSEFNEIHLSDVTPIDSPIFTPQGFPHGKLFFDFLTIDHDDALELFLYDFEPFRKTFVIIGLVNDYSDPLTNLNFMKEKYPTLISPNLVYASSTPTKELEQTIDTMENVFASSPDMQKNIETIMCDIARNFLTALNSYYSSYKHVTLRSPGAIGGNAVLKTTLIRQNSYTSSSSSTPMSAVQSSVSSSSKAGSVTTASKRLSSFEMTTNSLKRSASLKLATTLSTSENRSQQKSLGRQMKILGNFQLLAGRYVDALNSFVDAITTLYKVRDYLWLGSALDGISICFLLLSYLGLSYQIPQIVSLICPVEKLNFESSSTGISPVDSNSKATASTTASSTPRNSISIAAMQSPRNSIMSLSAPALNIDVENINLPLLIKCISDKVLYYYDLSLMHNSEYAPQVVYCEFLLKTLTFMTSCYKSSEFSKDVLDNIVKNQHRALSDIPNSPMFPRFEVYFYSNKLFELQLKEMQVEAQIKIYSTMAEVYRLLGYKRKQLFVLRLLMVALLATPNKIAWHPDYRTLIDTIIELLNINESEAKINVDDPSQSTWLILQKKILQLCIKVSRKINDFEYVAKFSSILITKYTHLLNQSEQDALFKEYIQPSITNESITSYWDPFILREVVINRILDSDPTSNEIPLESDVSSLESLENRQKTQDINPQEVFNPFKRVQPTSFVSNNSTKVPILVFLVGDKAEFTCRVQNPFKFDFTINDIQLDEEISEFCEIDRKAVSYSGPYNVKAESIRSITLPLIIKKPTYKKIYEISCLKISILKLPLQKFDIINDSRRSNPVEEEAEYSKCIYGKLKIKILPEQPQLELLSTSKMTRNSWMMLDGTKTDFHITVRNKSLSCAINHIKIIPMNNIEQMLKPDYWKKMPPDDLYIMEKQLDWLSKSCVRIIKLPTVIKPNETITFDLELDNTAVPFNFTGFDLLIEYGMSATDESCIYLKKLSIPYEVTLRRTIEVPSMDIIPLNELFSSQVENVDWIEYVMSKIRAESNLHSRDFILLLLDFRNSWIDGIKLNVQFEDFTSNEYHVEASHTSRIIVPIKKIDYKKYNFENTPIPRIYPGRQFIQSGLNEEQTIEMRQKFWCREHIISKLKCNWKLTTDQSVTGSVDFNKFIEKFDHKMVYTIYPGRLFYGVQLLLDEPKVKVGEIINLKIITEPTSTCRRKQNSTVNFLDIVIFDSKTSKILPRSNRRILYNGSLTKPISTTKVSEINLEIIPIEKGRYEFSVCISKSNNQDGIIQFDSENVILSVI

Assay [3] deals with B4.
The target in assay [4] is T3, Trs33 (subunit of core TRAPP/TRAPPI in TRAPPII) (S. cerevisiae, UniProt Q99394 1-268).
T3 sequence (looked up): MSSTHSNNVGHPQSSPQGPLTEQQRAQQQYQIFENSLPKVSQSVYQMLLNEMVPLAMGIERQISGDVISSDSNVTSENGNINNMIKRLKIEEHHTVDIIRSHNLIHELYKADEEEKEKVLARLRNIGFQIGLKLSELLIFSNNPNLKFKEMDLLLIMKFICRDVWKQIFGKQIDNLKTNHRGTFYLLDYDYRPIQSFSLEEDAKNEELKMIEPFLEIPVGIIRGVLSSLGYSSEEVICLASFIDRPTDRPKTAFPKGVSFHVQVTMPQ

B1: Trs20 (subunit of core TRAPP/TRAPPI in TRAPPII) (natural protein, S. cerevisiae, UniProt P38334 1-175, looked up)
chain: MPQYFAIIGKKDNPVYEIEFTNAENPQGFPQDLKELNPFILHASLDIVEDLQWQINPTSQLNGNGGNGSNGGGGFLRSRAVNNTDNCYLGKVDHFYGLAITAYISYSGMKFVMIHGNSANSSVVIDDNNMRSFYQEVHELYVKTLMNPFYKITDPIRSPAFDSRVRTLARKHLSK
On to B1, for which the binding result in assay [1] and in assay [2] was “binds” in each case.

B2: Trs65 (subunit of TRAPPII) (natural protein, S. cerevisiae, UniProt P32893 1-560, looked up)
chain: MECFVPLRCDLDGSNIEQLRQSHLSRKFIIFDEQLNLWLWFQGNSQENKRFVLQNMIILINEAQVTRTSTIDDYFTQVENNENLWRLKNDCCSKILFKSNVVMNNGYNNQIKFVFEYKSVDANFNNQDSLQDPQAKYTLDKYSSEEILPSFEPVYSWSSAATKSSKNTNNHLEKNNRATHRVSSKNSEVHEADVSRNPNTFTLKLQYPIFSLLNMRLRNISLKSEHCILSSLDFQTSKASEQLTKKFIYPQEHNSFLKLNFQEISYKLIDGTSQIELDPICPLKVPLTAFSYDSISATFKLVLLPKSTQPHRVKITLAYELELHPNLKLPVRTSWETEVTLKRSMPISSTSSQYSSNNNNTNHSASFNGAANNVNSGGLANLRLGGVSSSRFSLGAASTTSLVNSKLSNVKFKFINSNIKVIKGEKFTMRLQIINSSSSPLDLVVYYNNTINPIPSANNVRNSNGINNCGMNNGTIPNSPLTLENQYQLHNKYRKIAEGIILLSNDYKIPVVPPRETYFADLRFIGIMSGYYGTLSGLKVLDLNTNELIEVGNGASVLIQ
Turning to B2, the binding result in assay [2] and in assay [3] was “binds” each time.

B3: Tca17 (subunit of TRAPPII) (natural protein, S. cerevisiae, UniProt P32613 1-152, looked up)
chain: MSLRPCFVSLIDESDKPILIYVPNEAENEMNDVLKYNVLSNISLDYFESALVEWHSLDSKPLLKSIFQLEGVSVFAMLIKQTGLKIVIGFEQKSLSGADDEFEAINQIFETVRKIYIRVKCNPLLVSGDEKSIIKSLERKFDELFISTEVEL
As for B3, the binding result in assay [4] and in assay [3] was “binds” in each case.

As for B4, in assay [2], the binding result is on record as “binds”.
